From article PMC12605379, “Monomeric Glycine oxidase from Azotobacter vinelandii for Glycine biosensing” (World Journal of Microbiology & Biotechnology, 2025)
Blank lines part the entries; values can stand above or below the molecule they belong to.

Columns and labels:
[1] = biological target: T1, AviGO (glycine oxidase from A. vinelandii) (Azotobacter vinelandii, UniProt C1DPI5); assay: UV-visible spectroscopy of the purified enzyme; type: binding; conditions: copurified cofactor; occupancy, no affinity constant
T1 construct: gene thiO; codon-optimised synthetic gene in pCold I (NdeI/XbaI), expressed in E. coli BL21(DE3); HisTrap then Q-Sepharose, vector His tag, no cleavage told
T1 sequence (C1DPI5 1-363): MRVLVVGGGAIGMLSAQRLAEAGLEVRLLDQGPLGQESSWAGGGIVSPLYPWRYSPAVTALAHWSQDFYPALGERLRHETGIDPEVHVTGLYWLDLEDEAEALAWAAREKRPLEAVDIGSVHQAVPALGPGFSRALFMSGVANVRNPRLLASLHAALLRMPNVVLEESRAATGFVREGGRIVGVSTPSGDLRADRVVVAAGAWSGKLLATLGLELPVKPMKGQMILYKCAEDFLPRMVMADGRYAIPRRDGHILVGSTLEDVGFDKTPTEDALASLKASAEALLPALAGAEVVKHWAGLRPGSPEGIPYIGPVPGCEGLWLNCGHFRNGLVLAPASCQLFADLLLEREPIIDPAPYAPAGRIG
Description: UV-visible spectroscopy of the purified enzyme on AviGO (glycine oxidase from A. vinelandii) | The FAD/AviGO ratio was calculated from UV-visible spectroscopy of the purified enzyme

[2] = biological target: T1, AviGO (glycine oxidase from A. vinelandii); assay: HRP-coupled H2O2 assay (4-aminoantipyrine / N,N-diethylaniline, […] nm), substrate inhibition model; type: biochemical; conditions: substrate inhibition constant; 100 mM Tris-HCl pH 8.5, free enzyme 20 nM
[3] = substrate: NCC(=O)O; assay: purified protein; type: biochemical, Azotobacter vinelandii; conditions: 100 mM Tris-HCl pH 8.5, free enzyme 20 nM, 0.5-100 mM substrate, abstract prints Km 4.65
[4] = substrate: CNCC(=O)O; assay: purified protein; type: biochemical, Azotobacter vinelandii; conditions: 100 mM Tris-HCl pH 8.5, free enzyme 20 nM, 0.5-100 mM substrate

FAD/AviGO ratio [1]: 0.38
Molecule: Cc1cc2nc3c(=O)[nH]c(=O)nc-3n(C[C@H](O)[C@H](O)[C@H](O)COP(=O)(O)OP(=O)(O)OC[C@H]3O[C@@H](n4cnc5c(N)ncnc54)[C@H](O)[C@@H]3O)c2cc1C [FAD]

Glycine / ksi [2]: 23.00 ± 3.71 mM
Molecule: NCC(=O)O [glycine]

B1: AviGO (glycine oxidase from A. vinelandii) (Azotobacter vinelandii DJ) (protein)
chain: MRVLVVGGGAIGMLSAQRLAEAGLEVRLLDQGPLGQESSWAGGGIVSPLYPWRYSPAVTALAHWSQDFYPALGERLRHETGIDPEVHVTGLYWLDLEDEAEALAWAAREKRPLEAVDIGSVHQAVPALGPGFSRALFMSGVANVRNPRLLASLHAALLRMPNVVLEESRAATGFVREGGRIVGVSTPSGDLRADRVVVAAGAWSGKLLATLGLELPVKPMKGQMILYKCAEDFLPRMVMADGRYAIPRRDGHILVGSTLEDVGFDKTPTEDALASLKASAEALLPALAGAEVVKHWAGLRPGSPEGIPYIGPVPGCEGLWLNCGHFRNGLVLAPASCQLFADLLLEREPIIDPAPYAPAGRIG
notes: codon-optimised synthetic gene in pCold I (NdeI/XbaI), expressed in E. coli BL21(DE3); HisTrap then Q-Sepharose, vector His tag, no cleavage told
Km [3]: 4.76 ± 0.83 mM
kcat [3]: 0.38 ± 0.03 s⁻¹
Km [4]: 11.09 ± 0.75 mM
kcat [4]: 0.62 ± 0.01 s⁻¹
